# In US11278600B2, “Human alpha-galactosidase variants” (Codexis, Inc., priority 2014, dated 2022):
# Substitutions are numbered along the chain they refer to.
# B1: 371 (protein)
# chain: LDNGLARTPTMGWLHWERFMCNLDCQEEPDSCISEKLFMEMAEWMVSEGWKDAGYEYLCIDDCWMAPQRDSEGRLQADPQRFPHGIRQLANYVHSKGLKLGIYADVGNKTCAGFPGSFGYYDIDAQTFADWGVDLLKFDGCYCDSLENLADGYKHMSLALNRTGRSIVYSCEWPLYMWPFQKPNYTEIRQYCNHWRNFADIDDSWKSIKSILDWTSRNQERIVDVAGPGGWNDPDMLVIGNFGLSWDQQVTQMALWAIMAAPLFMSNDLRHISPQAKALLQDKDVIAINQDPLGKQGYQLRKGDNFEVWERPLSGDAWAVAIINRQEIGGPRSYTIPVASLGKGVACNPACFITQLLPVKRQLGFYNWTSRLKSHINPTGTVLLQLENTMQMSLKDLL
# modifications: Synthetic Polypeptide sequence of Variant No. 371 of mature Human GLA
# B2: 489 (protein)
# chain: LDNGLARTPTMGWLHWERFMCNLDCQEEPDSCISEKLFMEMAERMVSEGWKDAGYEYLCIDDCWMAPQRDSEGRLQADPQRFPHGIRQLANYVHSKGLKLGIYADVGNKTCAGFPGSFGYYDIDAQTFADWGVDLLKFDGCYCDSLENLADGYKHMSLALNRTGRSIVYSCEWPLYMWPFQKPNYTEIRQYCNHWRNFADIDDSWKSIKSILDWTSFNQERIVDVAGPGGWNDPDMLVIGNFGLSWNQQVTQMALWAIMAAPLFMSNDLRHISPQAKALLQDKDVIAINQDPLGKQGYQLRQGDNFEVWERPLSGLAWAVAMINRQEIGGPRSYTIAVASLGKGVACNPACFITQLLPVKRKLGFYEWTSRLRSHINPTGTVLLQLENIMQMSLKDLL
# modifications: Synthetic Polypeptide sequence of Variant No. 489 of mature Human GLA
# B3: 496 (protein)
# chain: B2 chain with I389T, M390V
# modifications: Synthetic Polypeptide sequence of Variant No. 496 of mature Human GLA
# B4: 493 (protein)
# chain: B2 chain with I389T, M392P
# modifications: Synthetic Polypeptide sequence of Variant No. 493 of mature Human GLA
# B5: 491 (protein)
# chain: B2 chain with I389T, M390W
# modifications: Synthetic Polypeptide sequence of Variant No. 491 of mature Human GLA
# B6: 497 (protein)
# chain: B2 chain with I389T, M390K
# modifications: Synthetic Polypeptide sequence of Variant No. 497 of mature Human GLA
# B7: 495 (protein)
# chain: B2 chain with I389P
# modifications: Synthetic Polypeptide sequence of Variant No. 495 of mature Human GLA
# B8: 494 (protein)
# chain: B2 chain with I389T, M390F
# modifications: Synthetic Polypeptide sequence of Variant No. 494 of mature Human GLA
# B9: 490 (protein)
# chain: B2 chain with I389T, M390D
# modifications: Synthetic Polypeptide sequence of Variant No. 490 of mature Human GLA
# B10: 492 (protein)
# chain: B2 chain with I389C
# modifications: Synthetic Polypeptide sequence of Variant No. 492 of mature Human GLA
# Experiments:
# Type in all cases: biochemical
# [1] = HTP-analysis of supernatants pretreated with acid (MUGal hydrolysis); conditions: activity of the variant/activity of Rd4BB (SEQ ID NO: 15); challenge at pH 3.7
# Procedure, shortened: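 MUGal hydrolysis was tracked by fluorescence (Ex 355 nm, Em 448 nm) after a 30-180 min reaction at 37° C. in pH 4.8 McIlvaine/citrate buffer, stopped with 1 M sodium carbonate. Beforehand, yeast (INVSc1) culture supernatants carrying GLA variants were held 1-3 h at 37° C. in acidic McIlvaine buffer, pH 3.3-4.3.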
# [2] = HTP-analysis of supernatants pretreated with base (MUGal hydrolysis); conditions: activity of the variant/activity of Rd4BB (SEQ ID NO: 15); challenge at pH 9.65
# Procedure, shortened: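 Fluorescence of released 4-MU (Ex 355 nm, Em 448 nm) after carbonate quench reports MUGal hydrolysis by GLA variants secreted from INVSc1 yeast. Before the acidic (pH 4.3-4.8) 30-180 min reaction at 37° C, supernatants had been pre-incubated at pH 7.0-9.7 for 1-18 h at 37° C.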
# [3] = HTP-analysis of yeast culture supernatants, no challenge (MUGal hydrolysis); conditions: activity of the variant/activity of Rd4BB (SEQ ID NO: 15)
# Procedure, shortened: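 Activity read as 4-methylumbelliferyl α-D-galactopyranoside hydrolysis: fluorescence (355/448 nm) after sodium carbonate stop, following 30-180 min at 37° C with 2 mM MUGal stock at pH 4.6–4.8. Enzyme source is unchallenged culture supernatant of INVSc1 yeast expressing GLA variants, grown 66-84 h at 30° C.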
Molecule,Relative Activity of GLA Variants After Challenge at pH 3.7 [1],Relative Activity of GLA Variants After Challenge at pH 9.65 [2],Relative Activity of GLA Variants After No Challenge (NC) [3]
B1,− (<0.5 relative activity over Rd4BB (SEQ ID NO: 15)),+ (0.5 to 1.5 relative activity over Rd4BB (SEQ ID NO: 15)),+ (0.5 to 1.5 relative activity over Rd4BB (SEQ ID NO: 15))
B2,+ (0.5 to 1.5 relative activity over Rd4BB (SEQ ID NO: 15)),+ (0.5 to 1.5 relative activity over Rd4BB (SEQ ID NO: 15)),+ (0.5 to 1.5 relative activity over Rd4BB (SEQ ID NO: 15))
B3,+ (0.5 to 1.5 relative activity over Rd4BB (SEQ ID NO: 15)),+ (0.5 to 1.5 relative activity over Rd4BB (SEQ ID NO: 15)),+ (0.5 to 1.5 relative activity over Rd4BB (SEQ ID NO: 15))
B4,+ (0.5 to 1.5 relative activity over Rd4BB (SEQ ID NO: 15)),+ (0.5 to 1.5 relative activity over Rd4BB (SEQ ID NO: 15)),+ (0.5 to 1.5 relative activity over Rd4BB (SEQ ID NO: 15))
B5,+ (0.5 to 1.5 relative activity over Rd4BB (SEQ ID NO: 15)),+ (0.5 to 1.5 relative activity over Rd4BB (SEQ ID NO: 15)),+ (0.5 to 1.5 relative activity over Rd4BB (SEQ ID NO: 15))
B6,++ (>1.5 to 2.5 relative activity over Rd4BB (SEQ ID NO: 15)),+ (0.5 to 1.5 relative activity over Rd4BB (SEQ ID NO: 15)),+ (0.5 to 1.5 relative activity over Rd4BB (SEQ ID NO: 15))
B7,+ (0.5 to 1.5 relative activity over Rd4BB (SEQ ID NO: 15)),+ (0.5 to 1.5 relative activity over Rd4BB (SEQ ID NO: 15)),+ (0.5 to 1.5 relative activity over Rd4BB (SEQ ID NO: 15))
B8,+ (0.5 to 1.5 relative activity over Rd4BB (SEQ ID NO: 15)),+ (0.5 to 1.5 relative activity over Rd4BB (SEQ ID NO: 15)),+ (0.5 to 1.5 relative activity over Rd4BB (SEQ ID NO: 15))
B9,+ (0.5 to 1.5 relative activity over Rd4BB (SEQ ID NO: 15)),+ (0.5 to 1.5 relative activity over Rd4BB (SEQ ID NO: 15)),+ (0.5 to 1.5 relative activity over Rd4BB (SEQ ID NO: 15))
B10,+ (0.5 to 1.5 relative activity over Rd4BB (SEQ ID NO: 15)),+ (0.5 to 1.5 relative activity over Rd4BB (SEQ ID NO: 15)),+ (0.5 to 1.5 relative activity over Rd4BB (SEQ ID NO: 15))
